# Tests used:
# Conditions in all cases: both partners purified
# [1] = molecular target: T1, hen egg lysozyme (hen, UniProt P00698 19-147); assay: SPR; HEL immobilised on CM5 chip (200 RU), VHH flowed over, multi-cycle, 26 °C, PBS with 0.005% Tween 20, global fit to a 1:1 binding model
# T1 construct: hen egg lysozyme (HEL), bought, used without further purification; also called HEL; source: bought: Wako Pure Chemical (Cat. No. 126-02671)
# [2] = molecular target: T1, hen egg lysozyme; assay: SPR; HEL immobilised on CM5 chip (200 RU), VHH flowed over, multi-cycle, 18 °C, PBS with 0.005% Tween 20, global fit to a 1:1 binding model
# [3] = molecular target: T1, hen egg lysozyme; assay: SPR; HEL immobilised on CM5 chip (200 RU), VHH flowed over, multi-cycle, 10 °C, PBS with 0.005% Tween 20, global fit to a 1:1 binding model
# [4] = molecular target: T1, hen egg lysozyme; assay: ITC; iTC200, 25 °C, PBS; VHH (10 µM) in the cell titrated with HEL (100 µM); 1:1 binding model; two independent measurements
# [5] = molecular target: T1, hen egg lysozyme; assay: SPR; HEL immobilised on CM5 chip (200 RU), VHH flowed over, multi-cycle, 22 °C, PBS with 0.005% Tween 20, global fit to a 1:1 binding model
# [6] = molecular target: T1, hen egg lysozyme; assay: SPR; HEL immobilised on CM5 chip (200 RU), VHH flowed over, multi-cycle, 14 °C, PBS with 0.005% Tween 20, global fit to a 1:1 binding model
# [7] = molecular target: T1, hen egg lysozyme; assay: SPR; HEL immobilised on CM5 chip (200 RU), VHH flowed over, multi-cycle, 30 °C, PBS with 0.005% Tween 20, global fit to a 1:1 binding model
# [8] = molecular target: T2, hen egg lysozyme (Gallus gallus (hen), UniProt P00698); assay: ITC; iTC200; 25 °C; PBS; VHH (10 uM) in the cell titrated with HEL (100 uM); 1:1 binding model
# T2 construct: hen egg lysozyme (lysozyme C), bought from Wako Pure Chemical; also called HEL; source: bought: Wako Pure Chemical (Cat. No. 126-02671), used without further purification
# [9] = molecular target: T2, hen egg lysozyme; assay: SPR; HEL immobilised; measured at several temperatures; van't Hoff analysis (non-linear regression); PBS with 0.005% Tween 20; KD given for 25 °C from the van't Hoff free energy
# [10] = molecular target: T2, hen egg lysozyme; assay: SPR; Biacore T200; HEL immobilised on CM5 chip (200 RU); VHH flowed over; 25 °C; PBS with 0.005% Tween 20; global fit to a 1:1 binding model
# Outline: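 Binding of the His6-tagged single-domain antibody, expressed in E. coli BL21(DE3) and purified by Ni-NTA and size-exclusion chromatography, was measured by surface plasmon resonance on a Biacore T200 against hen egg lysozyme immobilised on a CM5 chip (200 RU). Runs were at 25 °C in PBS with 0.005% Tween 20, with 300 s contact, 600 s dissociation and regeneration in 1.0 M Arg-HCl pH 4.4. Antibody concentrations were adjusted per mutant. Kd, kon and koff came from global fitting to a 1:1 binding model in BiaEvaluation.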
# [11] = molecular target: T2, hen egg lysozyme; assay: SPR; as a1, but KD from the responses in equilibrium (Scatchard plot, 1:1 model); HEL immobilised; 25 °C; PBS with 0.005% Tween 20
# [12] = molecular target: T1, hen egg lysozyme; assay: SPR; HEL immobilised on CM5 chip (200 RU), VHH flowed over, multi-cycle, 18 °C, PBS with 0.005% Tween 20, global fit to a 1:1 binding model; remark: listed apart in the source
# [13] = molecular target: T1, hen egg lysozyme; assay: SPR; HEL immobilised on CM5 chip (200 RU), VHH flowed over, 26 °C, PBS with 0.005% Tween 20, steady-state responses (Scatchard plot), 1:1 binding model
# [14] = molecular target: T1, hen egg lysozyme; assay: SPR; HEL immobilised on CM5 chip (200 RU), VHH flowed over, 18 °C, PBS with 0.005% Tween 20, steady-state responses (Scatchard plot), 1:1 binding model
# [15] = molecular target: T1, hen egg lysozyme; assay: SPR; HEL immobilised on CM5 chip (200 RU), VHH flowed over, 10 °C, PBS with 0.005% Tween 20, steady-state responses (Scatchard plot), 1:1 binding model
# [16] = molecular target: T1, hen egg lysozyme; assay: SPR; HEL immobilised on CM5 chip (200 RU), VHH flowed over, multi-cycle, 26 °C, PBS with 0.005% Tween 20, global fit to a 1:1 binding model; remark: listed apart in the source
# [17] = molecular target: T1, hen egg lysozyme; assay: SPR; HEL immobilised on CM5 chip (200 RU), VHH flowed over, multi-cycle, 22 °C, PBS with 0.005% Tween 20, global fit to a 1:1 binding model; remark: listed apart in the source
# [18] = molecular target: T1, hen egg lysozyme; assay: SPR; HEL immobilised on CM5 chip (200 RU), VHH flowed over, multi-cycle, 14 °C, PBS with 0.005% Tween 20, global fit to a 1:1 binding model; remark: listed apart in the source
# [19] = molecular target: T1, hen egg lysozyme; assay: SPR; HEL immobilised on CM5 chip (200 RU), VHH flowed over, multi-cycle, 10 °C, PBS with 0.005% Tween 20, global fit to a 1:1 binding model; remark: listed apart in the source
# [20] = molecular target: T1, hen egg lysozyme; assay: SPR; HEL immobilised on CM5 chip (200 RU), VHH flowed over, 22 °C, PBS with 0.005% Tween 20, steady-state responses (Scatchard plot), 1:1 binding model
# [21] = molecular target: T1, hen egg lysozyme; assay: SPR; HEL immobilised on CM5 chip (200 RU), VHH flowed over, 30 °C, PBS with 0.005% Tween 20, steady-state responses (Scatchard plot), 1:1 binding model
# [22] = molecular target: T1, hen egg lysozyme; assay: SPR; HEL immobilised on CM5 chip (200 RU), VHH flowed over, 14 °C, PBS with 0.005% Tween 20, steady-state responses (Scatchard plot), 1:1 binding model
# T1 sequence (P00698 19-147): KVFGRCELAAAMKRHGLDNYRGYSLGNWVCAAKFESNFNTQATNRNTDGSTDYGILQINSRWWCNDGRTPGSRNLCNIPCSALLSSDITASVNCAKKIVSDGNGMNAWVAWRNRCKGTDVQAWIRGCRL
# T2 sequence (P00698 19-147): as above
binder,measurement,setting,value
"D3-L11 (wild type), VHH specific for hen egg lysozyme (VHH, also called WT; WT antibody; source: E. coli BL21(DE3), purified (Ni-NTA, SEC)) VHH: DVQLVESGGGSVQAGGSLRLSCAASGSTDSIEYMTWFRQAPGKAREGVAALYTHTGNTYYTDSVKGRFTISQDKAKNMAYLRMDSVKSEDTAIYTCGATRKYVPVRFALDQSSYDYWGQGTQVTVSS",Kd,[1],0.127 nM
same,koff,[1],0.000847 s⁻¹
same,kon,[1],6.81e+06 M⁻¹ s⁻¹
same,Kd,[2],0.0549 nM
same,koff,[2],0.000274 s⁻¹
same,kon,[2],4.99e+06 M⁻¹ s⁻¹
same,Kd,[3],0.0267 nM
same,koff,[3],7.52e-05 s⁻¹
same,kon,[3],2.81e+06 M⁻¹ s⁻¹
same,Kd,[4],3.8 nM
same,stoichiometry N,[4],0.88
same,Kd,[5],0.0897 nM
same,koff,[5],0.000492 s⁻¹
same,kon,[5],5.48e+06 M⁻¹ s⁻¹
same,Kd,[6],0.0395 nM
same,koff,[6],0.000139 s⁻¹
same,kon,[6],3.52e+06 M⁻¹ s⁻¹
same,Kd,[7],0.177 nM
same,koff,[7],0.0015 s⁻¹
same,kon,[7],8.48e+06 M⁻¹ s⁻¹
"D3-L11 (VHH, VHH D3-L11 specific for HEL; Synthetic gene in pRA2 with a pelB signal peptide at the N-terminus and a His6-tag at the C-terminus; also called WT; WT antibody; source: E. coli BL21(DE3), purified (Ni-NTA, SEC)) VHH: DVQLVESGGGSVQAGGSLRLSCAASGSTDSIEYMTWFRQAPGKAREGVAALYTHTGNTYYTDSVKGRFTISQDKAKNMAYLRMDSVKSEDTAIYTCGATRKYVPVRFALDQSSYDYWGQGTQVTVSS",dH,[8],-21.4 ± 0.6 kcal/mol
same,dH (van't Hoff),[9],-17 kcal/mol
same,Kd,[10],0.129 nM
same,koff,[10],0.000785 s⁻¹
same,kon,[10],6.1e+06 M⁻¹ s⁻¹
"D3-L11 E32A (VHH, as the VHH chain of m2 with the stated change; source: E. coli BL21(DE3), purified (Ni-NTA, SEC)) VHH: DVQLVESGGGSVQAGGSLRLSCAASGSTDSIAYMTWFRQAPGKAREGVAALYTHTGNTYYTDSVKGRFTISQDKAKNMAYLRMDSVKSEDTAIYTCGATRKYVPVRFALDQSSYDYWGQGTQVTVSS",Kd,[10],1.87 nM
same,koff,[10],0.012 s⁻¹
same,kon,[10],6.43e+06 M⁻¹ s⁻¹
"D3-L11 K101A (VHH, as the VHH chain of m2 with the stated change; source: E. coli BL21(DE3), purified (Ni-NTA, SEC)) VHH: DVQLVESGGGSVQAGGSLRLSCAASGSTDSIEYMTWFRQAPGKAREGVAALYTHTGNTYYTDSVKGRFTISQDKAKNMAYLRMDSVKSEDTAIYTCGATRAYVPVRFALDQSSYDYWGQGTQVTVSS",Kd,[10],0.0911 nM
same,koff,[10],0.000687 s⁻¹
same,kon,[10],7.54e+06 M⁻¹ s⁻¹
"D3-L11 T55A (VHH, as the VHH chain of m2 with the stated change; source: E. coli BL21(DE3), purified (Ni-NTA, SEC)) VHH: DVQLVESGGGSVQAGGSLRLSCAASGSTDSIEYMTWFRQAPGKAREGVAALYTHAGNTYYTDSVKGRFTISQDKAKNMAYLRMDSVKSEDTAIYTCGATRKYVPVRFALDQSSYDYWGQGTQVTVSS",Kd,[10],2.99 nM
same,koff,[10],0.0113 s⁻¹
same,kon,[10],3.77e+06 M⁻¹ s⁻¹
"D3-L11 P104A (VHH, as the VHH chain of m2 with the stated change; source: E. coli BL21(DE3), purified (Ni-NTA, SEC)) VHH: DVQLVESGGGSVQAGGSLRLSCAASGSTDSIEYMTWFRQAPGKAREGVAALYTHTGNTYYTDSVKGRFTISQDKAKNMAYLRMDSVKSEDTAIYTCGATRKYVAVRFALDQSSYDYWGQGTQVTVSS",Kd,[10],13 nM
same,koff,[10],0.226 s⁻¹
same,kon,[10],1.74e+07 M⁻¹ s⁻¹
same,Kd,[11],44.8 ± 19 nM
"D3-L11 R106A (VHH, as the VHH chain of m2 with the stated change; source: E. coli BL21(DE3), purified (Ni-NTA, SEC)) VHH: DVQLVESGGGSVQAGGSLRLSCAASGSTDSIEYMTWFRQAPGKAREGVAALYTHTGNTYYTDSVKGRFTISQDKAKNMAYLRMDSVKSEDTAIYTCGATRKYVPVAFALDQSSYDYWGQGTQVTVSS",Kd,[10],1.65 nM
same,koff,[10],0.00183 s⁻¹
same,kon,[10],1.11e+06 M⁻¹ s⁻¹
"D3-L11 D115A (VHH, as the VHH chain of m2 with the stated change; source: E. coli BL21(DE3), purified (Ni-NTA, SEC)) VHH: DVQLVESGGGSVQAGGSLRLSCAASGSTDSIEYMTWFRQAPGKAREGVAALYTHTGNTYYTDSVKGRFTISQDKAKNMAYLRMDSVKSEDTAIYTCGATRKYVPVRFALDQSSYAYWGQGTQVTVSS",Kd,[10],0.156 nM
same,koff,[10],0.000956 s⁻¹
same,kon,[10],6.11e+06 M⁻¹ s⁻¹
"D3-L11 F107A (VHH, as the VHH chain of m2 with the stated change; source: E. coli BL21(DE3), purified (Ni-NTA, SEC)) VHH: DVQLVESGGGSVQAGGSLRLSCAASGSTDSIEYMTWFRQAPGKAREGVAALYTHTGNTYYTDSVKGRFTISQDKAKNMAYLRMDSVKSEDTAIYTCGATRKYVPVRAALDQSSYDYWGQGTQVTVSS",Kd,[10],1.63 nM
same,koff,[10],0.0147 s⁻¹
same,kon,[10],8.99e+06 M⁻¹ s⁻¹
"D3-L11 H54A (VHH, as the VHH chain of m2 with the stated change; source: E. coli BL21(DE3), purified (Ni-NTA, SEC)) VHH: DVQLVESGGGSVQAGGSLRLSCAASGSTDSIEYMTWFRQAPGKAREGVAALYTATGNTYYTDSVKGRFTISQDKAKNMAYLRMDSVKSEDTAIYTCGATRKYVPVRFALDQSSYDYWGQGTQVTVSS",Kd,[10],2.65 nM
same,koff,[10],0.00921 s⁻¹
same,kon,[10],3.48e+06 M⁻¹ s⁻¹
"D3-L11 S113A (VHH, as the VHH chain of m2 with the stated change; source: E. coli BL21(DE3), purified (Ni-NTA, SEC)) VHH: DVQLVESGGGSVQAGGSLRLSCAASGSTDSIEYMTWFRQAPGKAREGVAALYTHTGNTYYTDSVKGRFTISQDKAKNMAYLRMDSVKSEDTAIYTCGATRKYVPVRFALDQSAYDYWGQGTQVTVSS",Kd,[10],1.61 nM
same,koff,[10],0.00831 s⁻¹
same,kon,[10],5.17e+06 M⁻¹ s⁻¹
"D3-L11 Y52A (VHH, the substitution is still to be applied; source: E. coli BL21(DE3), purified (Ni-NTA, SEC)) VHH: DVQLVESGGGSVQAGGSLRLSCAASGSTDSIEYMTWFRQAPGKAREGVAALATHTGNTYYTDSVKGRFTISQDKAKNMAYLRMDSVKSEDTAIYTCGATRKYVPVRFALDQSSYDYWGQGTQVTVSS",Kd,[12],33 nM
same,koff,[12],0.0731 s⁻¹
same,kon,[12],2.21e+06 M⁻¹ s⁻¹
same,Kd,[13],119 ± 9 nM
same,Kd,[14],83.4 ± 6.5 nM
same,Kd,[4],1000 nM
same,stoichiometry N,[4],0.93
same,Kd,[15],60.5 ± 4.3 nM
same,Kd,[16],52.9 nM
same,koff,[16],0.144 s⁻¹
same,kon,[16],2.72e+06 M⁻¹ s⁻¹
same,Kd,[17],40.8 nM
same,koff,[17],0.102 s⁻¹
same,kon,[17],2.5e+06 M⁻¹ s⁻¹
same,Kd,[18],26.5 nM
same,koff,[18],0.0515 s⁻¹
same,kon,[18],1.94e+06 M⁻¹ s⁻¹
same,Kd,[19],21.2 nM
same,koff,[19],0.037 s⁻¹
same,kon,[19],1.74e+06 M⁻¹ s⁻¹
same,Kd,[20],99.2 ± 7.4 nM
same,Kd,[21],142 ± 10 nM
same,Kd,[22],71.4 ± 5.3 nM
